Consider six molecules from US20170152308A1 (Biogen, published 2017).

The target of assay [1] is T1, His-huTDP-43 domain I (amino acid residues 2-106) (human).
T1 construct: Amino terminal His-tagged fragment, E. coli; also called N-terminal domain
T1 chain: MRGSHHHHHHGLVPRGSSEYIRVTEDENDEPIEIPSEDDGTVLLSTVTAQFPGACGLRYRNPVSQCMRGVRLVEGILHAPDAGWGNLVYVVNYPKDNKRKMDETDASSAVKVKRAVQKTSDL
The assay can be described thus: direct ELISA, TDP-43 fragments coated at 6.6 ug/ml, OD 450. The protocol:
(§1) Non-specific binding sites were blocked for 1 hr. at room temperature with PBST containing 2% BSA (Sigma, Buchs, Switzerland). Antibodies were incubated 1 hr. at room temperature. Binding was determined using either a donkey anti-human IgGγ-specific antibody conjugated with HRP (Jackson ImmunoResearch, USA) or a goat-anti mouse IgG (H+L)-specific secondary antibody conjugated with HRP (Jackson ImmunoResearch, USA)., followed by measurement of HRP activity in a standard colorimetric assay.
On the technique in general: In an ELISA, binding on a coated surface is turned into a signal by an enzyme label.

Assay [2] deals with T2, His-huTDP-43 domain III (amino acid residues 183-273) (human).
T2 construct: Amino terminal His-tagged fragment, E. coli
T2 chain: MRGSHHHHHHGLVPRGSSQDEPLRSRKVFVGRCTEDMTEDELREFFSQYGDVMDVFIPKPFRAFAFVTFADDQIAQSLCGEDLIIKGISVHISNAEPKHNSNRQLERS
The assay can be described thus: direct ELISA, coated antigen.

The target of assay [3] is T3, 6xHis-SUMO-TDP-43 (1-414), properly folded full length (human, UniProt Q13148 1-414).
T3 construct: Purified with KSCN and arginine, monomeric; captured on the plate by an anti-6xHis antibody; also called folded full-length TDP-43; 6xHis/SUMO tagged full length TDP-43; not shown: N-terminal 6xHis and SUMO tags from a modified pET19-b vector
Briefly: capture ELISA, antigen held by anti-6xHis antibody. In a few lines: (§2)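 Anti-6×His antibody captured 6×His-SUMO-TDP-43 (1.7 μM, 1 hr RT) in PBS with 1% BSA, 300 mM arginine and 0.1% PEG 5000, pH 7.5, avoiding direct adsorption. Three-fold antibody titrations were incubated 1 hr RT and detected with HRP anti-human IgG Fc colorimetrically. EC₅₀ from a four-parameter logistic fit.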

Assay [4] addresses T4, 6xHis-SUMO-TDP-43 (220-414) (human, UniProt Q13148 220-414).
T4 construct: Captured on the plate by an anti-6xHis antibody; also called 6xHis/SUMO tagged truncated TDP-43; not shown: N-terminal 6xHis and SUMO tags from a modified pET19-b vector
Briefly: capture ELISA, antigen held by anti-6xHis antibody. In a few lines:
as §2

The target of assay [5] is T5, recombinant full-length His-tagged human TDP-43 (2-414) (human, UniProt Q13148 2-414).
T5 construct: Amino terminal His tag, made in E. coli, purified in 8 M urea; also called full length TDP-43; full-length TDP-43
Briefly: direct ELISA, coated antigen. The gist of the method: (§3)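 Plates coated overnight at 4° C with full-length TDP-43 at 5 μg/ml in carbonate buffer pH 9.6, with E. coli extract and BSA coated alongside. After blocking with 2% BSA, antibodies incubated 1 hr at room temperature and detected by HRP anti-human IgGγ colorimetric read-out. EC₅₀ from non-linear regression.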

In assay [6] the target is T5, recombinant full-length His-tagged …. Briefly: direct ELISA, coated antigen. In a few lines: as §3
The source holds these as a separate data set.

Assay [7] concerns the target T6, His-huTDP-43 domain IV (amino acid residues 258-414) (human, UniProt Q13148 258-414).
T6 construct: Amino terminal His-tagged fragment, E. coli, solubilized in 8 M urea; also called Glycine-rich domain
The assay can be described thus: direct ELISA, His-tagged TDP-43 fragments coated at 6.6 ug/ml, OD 450. The protocol:
as §1

Assay [8] addresses T2, His-huTDP-43 domain III (amino acid …). The assay is described as above. The method, then:
as §1

For assay [9], the target named is T1, His-huTDP-43 domain I (amino acid …). The description is as above. The method, then: as §1
For assay [10], the target named is T7, His-huTDP-43 domain II (amino acid residues 99-204) (human).
T7 construct: Amino terminal His-tagged fragment, E. coli
T7 chain: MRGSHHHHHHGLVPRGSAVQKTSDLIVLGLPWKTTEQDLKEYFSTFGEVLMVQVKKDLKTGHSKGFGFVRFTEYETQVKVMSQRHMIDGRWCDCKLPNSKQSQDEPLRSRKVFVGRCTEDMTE
Briefly: direct ELISA, coated antigen; direct ELISA, domain coated at 6.6 ug/ml (Example 1, FIG. 2F). The protocol: as §1
(§4) The polypeptides were coated onto ELISA plates at equal coating concentration of 6.6 μg/ml (recombinant TDP-43 and TDP-43 fragments) or 3.3 μg/ml (synthetic peptides). Binding of the human-derived antibodies was determined by direct ELISA.

Assay [11] concerns the target T1, His-huTDP-43 domain I (amino acid …). Briefly: direct ELISA, coated antigen; direct ELISA, domain coated at 6.6 ug/ml (Example 7, FIG. 5M). The method, then:
as §1
(§5) Binding of the human-derived antibodies was determined by direct ELISA.

In assay [12] the target is T6, His-huTDP-43 domain IV (amino acid …). Briefly: direct ELISA, TDP-43 fragments coated at 6.6 ug/ml, OD 450. The protocol: as §1
Assay [13] addresses T2, His-huTDP-43 domain III (amino acid …). Described as above. The protocol: as §1
Assay [14] concerns the target T7, His-huTDP-43 domain II (amino acid …). Described as above. The protocol:
as §1

Assay [15] has the same target. The assay can be described thus: direct ELISA, His-tagged TDP-43 fragments coated at 6.6 ug/ml, OD 450. The method, then: as §1
Assay [16] concerns the target T1, His-huTDP-43 domain I (amino acid …). Briefly: direct ELISA, coated antigen; direct ELISA, domain coated at 6.6 ug/ml (Example 1, FIG. 2H). The protocol: as §1, §4
The target in assay [17] is T7, His-huTDP-43 domain II (amino acid …). Briefly: direct ELISA, coated antigen; direct ELISA, domain coated at 6.6 ug/ml (Example 7, FIG. 5H). The protocol: as §1, §5
For assay [18], the target named is T1, His-huTDP-43 domain I (amino acid …). The assay can be described thus: direct ELISA, coated antigen; direct ELISA, domain coated at 6.6 ug/ml (Example 7, FIG. 5). The protocol: as §1, §5

Where two headings read alike, the source gives them in different places. Bounds are passed on as bounds.

T3 sequence (Q13148 whole entry): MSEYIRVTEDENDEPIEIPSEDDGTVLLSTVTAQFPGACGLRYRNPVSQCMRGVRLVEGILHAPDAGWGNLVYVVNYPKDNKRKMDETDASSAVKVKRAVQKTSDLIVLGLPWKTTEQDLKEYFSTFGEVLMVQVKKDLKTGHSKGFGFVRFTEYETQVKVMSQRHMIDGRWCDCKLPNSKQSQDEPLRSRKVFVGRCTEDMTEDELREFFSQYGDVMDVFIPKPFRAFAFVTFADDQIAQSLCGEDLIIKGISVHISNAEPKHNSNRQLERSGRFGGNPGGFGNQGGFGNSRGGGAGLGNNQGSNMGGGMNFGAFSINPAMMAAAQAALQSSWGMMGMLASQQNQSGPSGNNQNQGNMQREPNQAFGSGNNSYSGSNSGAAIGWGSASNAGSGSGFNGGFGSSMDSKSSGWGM

B1: NI-205.98H6 (antibody, human IgG1, V domains shown)
VH: EVQLLESGGALVQPGGSLRLSCAASGLTFSRHAFSWVRQAPGKGLEWVAISSGSGGNTYYAASVKGRFTISRDESKNTLYLQMNSLRVEDTALYYCAKEVLEWSLLSRYMDVWGKGTTVTVSS
VL: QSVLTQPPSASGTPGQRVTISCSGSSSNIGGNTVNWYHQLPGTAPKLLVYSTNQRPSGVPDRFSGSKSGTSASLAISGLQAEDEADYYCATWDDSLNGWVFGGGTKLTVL
notes: Human-derived
By EC50 is commonly meant the concentration giving half of the maximal effect. B1: the results for the binding result in [1] and in [2] were “no binding” and “binds”, respectively. Moreover, the concentration for a half-maximal effect (EC50) in [3] turned out to be 46 nM; in [4] it was 20 nM; in assay [5], 2.6 nM.

B2: NI-205.113C4 (antibody, human IgG1, V domains shown)
VH: QVQLVQSGAEVKKPGASVKVSCKASGYTFTNYYMHWVRQAPGQGLEWMGIINPSGGRTSYAQKFQGRASMTRDTSTSTVYMEVISLRSEDTAVYYCARQRPSGYSGYGPSESYGNPTDDAFDVWGQGTTVTVSS
VL: SYVLTQPPSVSVAPGQTARITCGGNNIGSRGVHWYQQRPGQAPVLVVYDDSDRPSGIPERFSGSNSGDTATLTISRVEVGDEADYYCQVWDNSSDHLVVFGGGTKLTVL
notes: Human-derived
Regarding B2, the EC50 in [6] and in assay [5] was 13.2 nM throughout. Also, the binding result in assay [7] was “no binding”; in assay [8], “no binding”; in assay [9] it was “no binding”; in [4] it was “no binding”; in [10], “binds”.

B3: NI-205.8C10 (antibody, human IgG1, V domains shown)
VH: EVQLVESGGGLVNPGGSLRLSCTASGFSFSTYSMNWVRQAPGKGLEWVSLITSSGSYIYYADSVKGRFTISRDDAKNSLYLQMNSLRAEDTAVYYCANMLAAAGSHYFHYWGQGTLVTVSS
VL: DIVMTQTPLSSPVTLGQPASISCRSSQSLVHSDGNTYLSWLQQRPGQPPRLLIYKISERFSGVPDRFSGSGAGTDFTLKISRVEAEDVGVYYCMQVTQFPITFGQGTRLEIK
notes: Human-derived
On to B3, for which the binding result is recorded as “binds” in [11], “no binding” in assay [12], “no binding” in assay [13] and “no binding” in assay [14]. Further, the half-maximal effective concentration (EC50) in assay [5] is 15.6 nM.

B4: NI-205.87E7 (antibody, human IgG1, V domains shown)
VH: EVQLLESGGGLVQPGGSLRLSCAASGFTFSSYAMSWVRQAPGKGLEWVSAISGGGDRTYSADSVKGRFTISRDNSKNTLYLQINSLRVEDTAVYYCAQGGGGEMTAVTMDGTYYGMDVWGQGTTVTVSS
VL: QSALTQPRSVSGSPGQSITISCTGTSSNVGTYKFVSWYQQHPGKAPKLMIYDVTKRPSGVPDRFSGSKSGNTASLTISGLQAEDEADYYCCSYAGSYTYVFGSGTKVTVL
notes: Human-derived
For the molecule B4, the EC50 in assay [6] and in [5] was 17.2 nM throughout. Further, the binding result in [7] is recorded as “no binding”; in assay [8], “no binding”; in assay [15], “no binding”; in assay [4] it was “no binding”; in [16], “binds”.

B5: NI-205.38H2 (antibody, human IgG1, V domains shown)
VH: EVQLVESGGDLVQPGGSLRLSCTASGFNLGDYWMHWVRQVPGKGLVWVSRISSDGASVSYADFVEGRFTISRGNARNTLFLELNSLRLDDTAVYYCAMGVVWGQGTLVTVSS
VL: SYELTQPPSVSVSPGQTATISCSGDALPKRYAYWYKQKSGQVPVLIIYEDNKRPSGIPARFSGSSSGTMATLTITGAQVDDEADYYCYSSDNSDTYSVFGGGTKLTVL
notes: Human-derived
Consider B5, for which the binding result in assay [12] is given as “no binding”; in assay [13], “no binding”; in assay [1] it was “no binding”; in [17], “binds”; in [4], “no binding”. Moreover, the figures for the half-maximal effective concentration (EC50) in assay [3] and in assay [5] were > 120 nM and 8.2 nM, respectively.

B6: NI-205.29E11 (antibody, human IgG1, V domains shown)
VH: QVQLVQSGAEVKKPGASVKVSCKASGYIFTDYFIHWIRQAPGQGLEWMGWIKPKSGGTDYAEKFQGRVTLTRDTSITTVYMELSRLNSDDTAVYYCARLKYSVPDSDYWGQGTLVTVSS
VL: DVVMTQSPLSLPVTLGQSASISCRSSQGLVHSDGNTYLNWFHQRPGQSPRRLIYKVFNRDSGVSDRFSGSGSGSDFTLMISRVEAEDVGIYYCMQGTLWPLTFGQGTKVEIK
notes: Human-derived
B6: the EC50 is > 100 nM in assay [3], > 97 nM in [4] and 10.4 nM in [5]. Further, the binding result in assay [18] is “binds”.
